Data from the DeepSol protein solubility set.

Test: soluble on expression in E. coli; label from the status in PepcDB or PDB records
For “MAHHHHHHMSAKLTVAVPRLASTVLLLARNPKHAISEQRPATGDNAARENDIHVLIMKRHGKARFMPGVYVFPGGGIEGSDYAAATHYLAEHYNLHLQDAADKKVTTQDFIESCGQPSAEEAELEAWACRVGALRELAEEAACVLRRDGCIFSEAEWIKWQKSRSDAGATGGASTDPVSSRPATLLPIYDLPAVSSLRPVARWVSPRQSRYRYDTYFYAALVNSALVSAEAHKAAHAPCSTQASSCDEANAGMGVRCIPPQELPLLEQASEVSELLWISPLEALRRHEDPSDVFSLAPPTYLLLHALSLQPSFASLAAAWAAAPASPEDPAAKPLGDLPHSSVLPCVEPLSTMTEDGRRIMKFVLPARYFHETGWSVAEGEYLFPGECCAGHRHFIHVFVGRAGATTGDGATADKPCTILH”, the “soluble on expression in E. coli” value was “not soluble”. With “MAHHHHHHMSGAFGCGSYRSVVAGTQNVPRRMTFYPSAYELIQLHKAHREVIRHFYVRDKIFDNKFPGNALANGLFKFVPNRRENYHMRELMESIRRRSIWMHRIKQQREINAKVVENMEVKYGKKAAASMLCFTTPDSNAYFAPHRYQDVANSWPNYWQHPSVNHVVPKPRWRRHRELGGITRVEDPFAVQASDY” the “soluble on expression in E. coli” value was “not soluble”. For “MAHHHHHHMSGVVIKKPNLKRLLAGQREELASFQPPVHPIPEYLGSPLPYLSNPYHIRGTLMAVEQEPEPNHEADGGKQLMADIMNERARICLEVEKTLALTCRVLDKAAQNDGELTELARESLARLTVMGEDLSNRMITSRE”, the “soluble on expression in E. coli” value was “not soluble”. In the case of “MAHHHHHHMSKLIKLDCGVQHYAWGKEAAESYVAKMKGEGNKEGKYAELWVGTHPNCPSKTFSGQNLDDFLKNDNNMSRFVHPKQQADPRFRDTVPFLLKLLSVQTALSIQAHPNKQLAEKLHRENPEKYKDPNHKPELVVALTPFEALCCFRPLKDILEFLESASPLKTLLGPAADVLPGEVEDSEAIKHMMDIVYNTDAKKHAEALQEHAEELRSRGGEMTKEDSVFLRVLYQYPDDMGCWMVYFLNYVQLAPGEGLFLADSEPHAYLFGDSVEIMACSDNVVRAGLTPKWKDVPTLLRMLRYGTDGLERAKFERYRAPEGSEWELQHYSPPREFQDFSLYRIEHRVERQGQTHIKLPTVGLGFCVEGCGIVNGERVRLGECFLVPYGDLKIEAFGDFQIFVASMNYSLHSASHM”, the “soluble on expression in E. coli” value is reported as “soluble”. For “MAHHHHHHMSNAEEETVKKKKKYRKDKPWDNENIDHWKVEKFTQEDNKHHFLEESSFKVLFPKYREKYLQQFSSDIKNVLNKHFIKFEIDLIEGYMCVKTTKKTFDPYIIIKSRDMISLLSRSVPFVHAKRVLEDETYCDIIKISGYVRNKNKFIKRRQRLLGSNATTLKALEILTNCYICIHGKTVSVIGHFKSLKVVRRIIIDCMKNIHPVYHIKELIAKRELEKNEEFKNENWEKFLPNFKKRNVQRKKIKEKLDKKKKKNKSVFPPDQLPRKIDIQMETGEYFLNNQKNKKKDKTQDKQQKGND”, the “soluble on expression in E. coli” value was “not soluble”. With “MAHHHHHHMSNNYFNNEAPPDNINNLSYDEGLEQQYNFTDNEEEIFSSFFSDNKKNICLPKSLREHMLIEYTAMFVNIEGDIAEFYLKLDNDVLIKFPFLHVDHPLHRYYEFVKLNTKKRLITKYPKIIPSPLKDLFQYVTDLENTKVINNEIKSKKLKEKQIEHVKNKKGNKQILMKQKENQSYSSLFMRYMQSDDEKSNSTVENDKNEEHNEDTLSNESMMEIDNIIKKLKDKKDKSSMQTARFYLQCIEKLKFLQYGTKQYKYFVQKLLYDQNRLNVNNSDIKVRQKIHSTDFLEFLLKTDEHKKSLDNVINEDIYEQQNSHETETERDDLQTMQDYRR” the “soluble on expression in E. coli” value was “not soluble”. With “MAHHHHHHMSQNKLYKTNYGYNNPILLNKNERNIKTYVNQETMTNKLLTTYNRSPLQSNYEHNIPKIIHSSTIKKQGVINENNGDKIYKPNYRDMNNLYNSKYVFSKNTPEYINGRKQMITVYDNIKNEERNKSINYYKNKNMIKIPSSYNSNNGNKIKSNNVKDGVLQLEKGSIQNVAKNMNTFHNKSNENGKFIKKLNNSNYKEVTSNVDEIRLLNKSLSAKISSSIKTNYEKSNILDHKKNTNVKVSKISIENKKYNIRKKENMKWAPKYNNNNNNNNNKDHKNMIIESVKVVKNPKEINKKKTKIVQNKYKNPLPSYICLHFHDNSLNLNNGLKIFNDMITVDKNQRMKKWNGYEWDVIEKDFHFLIKARYDNKGNIWCINKSYEVLKIMRNKLKNFGHLGKEEIIDIGFDKKNILWCINRKGQLLKWVKTKWDNIQYKGFHKLICFSFDKKGELWAINLKKELAIWNKKNKCWDEKYIKDNLKISCIDFDGDGKLWVVSNSGALLTYSKDQWINFGLVCLDELICISFKKLQE” the “soluble on expression in E. coli” value was “not soluble”. In the case of “MAHHHHHHMSSAHKPTTQEAINFFKQYREKFQRSSSGGNSPSQNSVNASPQQNIVTQVQQVDVVPDLTTRSIIPMNRRNGTTTTRLDLLRKSPTNCSPCLVQEVEIKPLLPPLPFASVPKVTLVLDVDETLVHSTFQPSSDVVYDKVLLVPSEGKTYTVSVKYRPYLEDFLRFVSRRFEVVIFTASMRAYCDKLMDEIDPHGILGNLRLFREHCTFSERSYVKDLHRLGRDLRRVVILDNSPAAYSFQQRNAIPIKTWINDPKDRELFLLLPLLDRLAMCDSVYSELDPYNARGCDYL”, the “soluble on expression in E. coli” value is reported as “not soluble”. For “MAHHHHHHMSTAKSFPMAQLSTRAQYSRMQREFVQLQRQENPRNINFTTSLKNRHKNRYLDILANEETIYPPVLKAVGAQPGRYPYINGNLIDLDLPHTFVACQAPVPQGVPDFLETLSEKKVDLVVMLTKLREGGVLKAERYWPEEEEDSLSFPESGHDAIKVTRDAEASYEVDAELDIVRRPLVIHVPGKPMHRVLQVQYVGWPDHGVPESAASFDELLSVIKNCVTTSPILVHCSAGIGRTGTLIGAYAALLHIERGILTDSTVYSIVAAMKQKRFGMVQRLEQYAVIYMTVLGRLGVDISGLVSTLNLKA”, the “soluble on expression in E. coli” value was “soluble”. For “MAHHHHHHMSTFARRRIIQDLNKINKEKNKSFEASPFADNIMYCHAIIRGPDDTIWECGIFHLIIHFSEEYPVSPPKLRFLSKIYHPNIYSDGNICLDILQNQWSPIYDITSILTSIQSLLNDPNTSSPANPEAARIFINNRNLYNKRVLMCVEDSWEIPKFNINNYS”, the “soluble on expression in E. coli” value was “not soluble”. For “MAHHHHHHMSTVEELKFIWKFLFSHMNTEKSKEEICDEKKYEENIILLKKLMRTENIKFDQKYNAINILEKLKDIEDIQYEDILNDYAKNFLTFLKGSFEKVAEEIQINDKISFRRNELIKQDLNNKLQNLNHNYNLEYINLNKCLGTEDFESQLNASLKFNSLKDILSKLLKEMKDYEIQYNNLSDTDKFLDMKICELENYLNNTNQNS”, the “soluble on expression in E. coli” value was “not soluble”. In the case of “MAHHHHHHMTGSDEEFEIGDILDIKKKKNGFIYLVNWKGYSDDENTWEPESNLLHLTTFKKKMELLKSAYLNKVDTTQNDGNLLKNHLTSPSSLQEETGTTNITKTKGRNPLISKKKGNKKGVTNKLEAKKLLSTNSDNSQKMSDDEYNESIKQETIENPHDSSLLNVEDVYSVRIKNRKMEFLASLKNASPQWVEESNIRRTGHLNIKVNDFKKYIRRKKTSKGNRIVIKNLHNVGDELYISVIHNINNKEIHSLYPSKVIEYIYPQELLNFLLSRLRYRTA”, the “soluble on expression in E. coli” value is reported as “soluble”. For “MAHHHHHHMTQSVSIGADHRLEATTSDCVSSVCFSPKECPMLMTGVASWDGSCSIWQVARNPAGAVISQPAWTTTHDSPLLTMSFSADGRVFFGGCSKTAVMWDLNSNQKAVVASHDLPISCLDFLTLPQTMSQMLITGSWDGKLRWWDLRQQSYVREENLGEPVFALDAQKTVPMMAAATGRLAHVYDVQQMQKVNELKLPDVMKFNLRCITCAPQYDGVGVGSSEGRVSFISMKDAPGCTFKAHITTEKSHYILSQTNFCVHHPTLPLLLSGGGDGNLTVINRADRKVIKTLQCEQKVGTQAIPISAGDISADGSLVAYAHSYDWAMGKSGYRNQPTSVHIRPLS”, the “soluble on expression in E. coli” value was “not soluble”. With “MAHHHHHHMTRDDGTQVAQLLSEGKYNLPMFLRYLKASSMEGDQPDKSLLLGILLQSLARFQTSDFTACMCLVPSHVQDSPSVEKELNYIYGLENLLSCGLFARFWTQWSSVKEHLPESFHFEARVRTSILETICITMESIPTEKLATYLAVSPDQVQKVVHNAMKDSEDRDMKVMAYDSGSVVFHRNRFNYPQAGAAQDAIRFTDVSSVIHNDVPRRGAAVAADETRDVRARTWARMADE” the “soluble on expression in E. coli” value was “soluble”. With “MAHHHHHHMTRTKVKKVQMQMKARETVAPPSTACTTTRCLYTLTTFDVKSGGVKTSGEFPAGGGPKLPRDPLLHYFVKSLHGFLSTCLVVTSQRLVTFSANNNFFCIATVFPTLHTSPSVKNSKSLALRGKTENVVTERLGV” the “soluble on expression in E. coli” value was “not soluble”. For “MAHHHHHHMTSFMLATNCPDELCCALCLDSWKKPVELQPCGHIFCQECIGAPRVCPVCRAPVNCTKQPHRSLVNLAQNLPVRCSSCGWTGRREGSDSHTCPTASWSGSTEAPSTTNAQSTCQGSRQQSVADTPWLRYGLTQEEYDSIVALFVFFDSDESGHLCREEMGRLARWLNFARTDDDIDRMFREMDEDGTGTLCLEEFLSWLSKNRPDPSVLYGMSQQQYNCVMMQFRLYDRDRDGFLDADDFSKLAVRIGDVPDIESGMQLFRSITTGHCEKIGLHQFLLYCVGRMFR”, the “soluble on expression in E. coli” value was “not soluble”. In the case of “MAHHHHHHMTSVEAENQPVEDPETFVVMEENGAPRDPQVAVSALDEAAEEGAVSGGEREPAAAGDDLSNPHVFKVAAREVDEGYMSVIRGLSAFGRADEEVCRNAVDICKDIIAMEQSLFSEVPSYVTNYASMQRAKTVVLNKAVRPHWTIPTPEGPPRTWEEQRAYVDPGVPLMLPYSAERFKKEHPERALVEGTYHNLFYGDGTQVVFTASADNKRKQIEEEKRKHPHPSYHGPYVFEPQQKKPMRVASDFVPSCAEPDRLRVDLRKKPVTKAKAEKSQKKKVTTK”, the “soluble on expression in E. coli” value is reported as “not soluble”. For “MAHHHHHHMTVAKKCMVVLQHGSHGTHLDLACLSQYLKAKDPRLIVWESYKNEGMRTDDGVVPCGERLADNLIREIKELCSTPTQSGGDGGREKVVVQMSFVCHSMGGLIVREALPRVWDKVESQKGKLEIEWNMFCTIATPHGGVCQMASTLRYYLGRLISFFYSTSYHDMFLGSDVLTDRLLSPKHLSCLAAFKRRLLVSSINDILVPLMSSGFMLTPSQRGLPGDMLREEQKQLCAFNEREMYDKMRTITEIPKEEWPANKFLAERRIAKTLVQAVGNFDSVVVDLRSPRLEELYEDRKRRTTAWYGANKRSHQAMVCKPPFDTVEEAFGFVSHMVGDEVLATFQE”, the “soluble on expression in E. coli” value was “not soluble”. For “MAHHHHHHMTVKNAAKSGKYVWHAMPEEVRKSLKRGSVDETNGIKMGKKGTHATPSEPIYMEVPPDETQRKEKSPPRGMALPHVSTPNEKQPTPMPGETTNSGDVVVSQESGCVGVTHGTQSLSSSRTLKTKHVLHFRGPGWEKVLRKNKKGLESAFKKDVFEATGLEARRIEELKFEFASMLIVTFVVRRENDDEGTSKLHSDLQACAFPRTVLLYRN”, the “soluble on expression in E. coli” value was “soluble”. For “MAHHHHHHMVFSTHGIRVVYNTANVDRSLYAVVHCSDGKYAEVSKDHLNRLKFIEKSSEEEDIEFDYPEAVLESLAQWTLKYGMDGVAVSSTVRPCIYRNVQHVLKDDWEREFFTTRLMNDLNIMHYLQTINAAEKYEMKGFHDFLCVCLSCKLRNEEDTELVHKIMGLEDFVEIGPSDLDEAACRYTWLDQAIKPTVRR”, the “soluble on expression in E. coli” value was “not soluble”.
